We go through eight sequences from the DeepSol protein solubility set.

The nature of this series: soluble on expression in E. coli; label from the status in PepcDB or PDB records.
For “MCVNFIPPSRGQLREWLGCDPGDGQWPDEAWQDYPAPILTRDGLRFASYGFIPKRHQPAGVRLSTMNARVETIGQLRSYRDAWRNCQLCLVPMQAFYEPCYESGRAVRTKISMADGAPFAVAGLWREWREADGSISLAFTQITIHADGHAVMGRMHRPGDEKRSLAIIPAALYQAWLHCRNPEQARAFLQLFSAEAMRAEGEIADPPRQGSLFDLEHHHHHH”, the “soluble on expression in E. coli” value was “not soluble”. The value for “GSHMASSEDEKLSFEAVRNIHKLMDDDANGDVDVEESDEFLREDLNYHDPTVKHSTFHGEDKLISVEDLWKAWKSSEVYNWTVDEVVQWLITYVELPQYEETFRKLQLSGHAMPRLAVTNTTMTGTVLKMTDRSHRQKLQLKALDTVLFG” was “soluble”; that for “HHHHHHMSKRETFNETFLKAARGEKADHTPVWYMRQAGRSQPEYRKLKEKYGLFEITHQPELCAYVTRLPVEQYGVDAAILYKDIMTPLPSIGVDVEIKNGIGPVIDQPIRSLADIEKLGQIDPEQDVPYVLETIKLLVNEQLNVPLIGFSGAPFTLASYMTEGGPSKNYNKTKAFMYSMPDAWNLLMSKLADMIIVYVKAQIKAGAKAIQIFDSWVGALNQADYRTYIKPVMNRIFSELAKENVPLIMFGVGASHLAGDWHDLPLDVVGLDWRLGIDEARSKGITKTVQGNLDPSILLAPWEVIEQKTKEILDQGMESDGFIFNLGHGVFPDVSPEVLKKLTAFVHEYSQNKKMGQYS” was “soluble”; that for “STAGKVIKCKAAVLWELKKPFSIEEVEVAPPKAHEVRIKMVAAGICRSDEHVVSGNLVTPLPVILGHEAAGIVESVGEGVTTVKPGDKVIPLFTPQCGKCRICKNPESNYCLKNDLGNPRGTLQDGTRRFTCSGKPIHHFVGVSTFSQYTVVDENAVAKIDAASPLEKVCLIGCGFSTGYGSAVKVAKVTPGSTCAVFGLGGVGLSVVMGCKAAGAARIIAVDINKDKFAKAKELGATECINPQDYKKPIQEVLKEMTDGGVDFSFEVIGQLDTMMASLLCCHEACGTSVIVGVPPDSQNLSINPMLLLTGRTWKGAIFGGFKSKESVPKLVADFMAKKFSLDALITNVLPFEKINEGFDLLRSGKSIRTVLTF” was “soluble”. The value for “MGSDKIHHHHHHMYLAYYGFAEKPFQLKPDPNFFFPSRGHKRAAAYLEYGLSQEDGFIIITGDVGAGKTTLMRYLFQKLRQERVAAAQLVSTRLDPDDALRMVAAAFGLSYEGLSKAALLLELERFMRKCERESTRVLLVVDEAQNLLPQTLEELRMLSNFQSDNRPLLQTFLLGQPEFRRTLLGSQMQQLRQRVIATYHLGPLDQAETRAYIEHRLQKAGWNGSPVLQDEIFEVIHNFSAGIPRKINLFCDRLLIMGCLEELQTLGKAEANEVMLDIQKEFDLAVSPE” was “not soluble”. The value for “MENNLAEFERRAEKNLLIMCKEKEKLQKKAHELKRRLLLSQRKRELADVLDAQIEMLSPFEAVATRFKEQYRTFATALDTTRHELPVRSIHLEGDGQQLLDALQHELVTTQRLLGELDVGDSEENVQVLDLLSELKDVTAKKDLELRRSFAQVLELSAEASKEAALANQEVWEETQGMAPPSRWYFNQDSACRESGGAPKNTPLSEDDNPGASSAPAQATFISPSEDFSSSSQAEVPPSLSRSGRDLS” was “soluble”; that for “MAVQFEFYKNPVQGEEEGETSYHPRVVNFQHVTTQRLAVEIHSATTFGKAEVEAMLMELSRCMGNHLREGQRVHLDGVGYFQITLQATEPIHSMAAHADKVKFKSVSFLADRDLKGELIGMHAQRSKYKPHSATLSQEEIDKKLTGYFATHTVLTRSDMQSLCQFTHSMAARHIRRLKEEGSLQNIGIRTQPIYVPCPGHYGK” was “not soluble”.

For the sequence “MTYGPESLSNQELLAILLRTGTKKEHVLNLSIKILNGLDSLADFRSLSLEELQEIEGIGQVRSVEIKAMLELSKRINQAEYNFKERILSSERLAKIMMSELGDKRQEHLIAIYLDTQNRVIKKQVIFIGSVRRSVAEPREILHYACKSMATSLIIVHNHPSGSTYPSENDLRFTEKIKRSCDDLGIVFLDHIIVGKKEYYSFREETDLV”, the “soluble on expression in E. coli” value was “not soluble”.
